{"source": "paper PMC11050134", "key": {"[1]": {"molecular_target": "influenza viral envelope hemagglutinin, vaccine preparation (Denka-Seken) with a mixture of the hema (influenza A virus (H1N1, H3N2) and influenza B virus)", "experiment": "SPR; BIAcore X100; […]; HBS-N (10 mM HEPES, 150 mM NaCl, pH 7.4), 30 μL/min, […], dissociation 600 s; Langmuir 1:1 fit"}, "[2]": {"molecular_target": "Halimeda borneensis lectin HBL40 (Halimeda borneensis)", "experiment": "SDS-PAGE, non-reducing against reducing; purified HBL40 on 12% gel with and without 2% 2-mercaptoethanol, Coomassie stain; about 40 kDa non-reducing, 20 kDa reducing"}, "[3]": {"molecular_target": "asialo-fetuin (UniProt P12763)"}, "[4]": {"molecular_target": "transferrin (UniProt P02787)"}, "[5]": {"molecular_target": "porcine thyroglobulin (porcine) (UniProt F1RRV3)"}, "[6]": {"molecular_target": "asialo-transferrin (UniProt P02787)"}, "[7]": {"molecular_target": "asialo-porcine thyroglobulin (porcine) (UniProt F1RRV3)"}, "[8]": {"molecular_target": "bovine submaxillary mucin (bovine)"}, "[9]": {"molecular_target": "asialo-bovine submaxillary mucin (bovine)"}, "[10]": {"molecular_target": "fetuin (UniProt P12763)"}}}
{"substance": "Halimeda borneensis lectin HBL40 (natural protein)", "values": [{"measurement": "Kd", "setting": "[1]", "value": 1.21, "unit": "µM"}, {"measurement": "koff", "setting": "[1]", "value": 0.0433, "unit": "s⁻¹"}, {"measurement": "kon", "setting": "[1]", "value": 35600, "unit": "M⁻¹ s⁻¹"}, {"measurement": "stoichiometry N", "setting": "[2]", "value": 2}, {"measurement": "hemagglutination inhibition (trypsin-treated rabbit erythrocytes): lowest concentration of glycoprotein that completely inhibited the hemagglutination activity of a lectin solution of titer 4", "setting": "[3]", "value": 125, "unit": "µg/mL"}, {"measurement": "hemagglutination inhibition (trypsin-treated rabbit erythrocytes): lowest concentration of glycoprotein that completely inhibited the hemagglutination activity of a lectin solution of titer 4", "setting": "[4]", "value": 500, "unit": "µg/mL"}, {"measurement": "hemagglutination inhibition (trypsin-treated rabbit erythrocytes): lowest concentration of glycoprotein that completely inhibited the hemagglutination activity of a lectin solution of titer 4", "setting": "[5]", "value": 31.3, "unit": "µg/mL"}, {"measurement": "hemagglutination inhibition (trypsin-treated rabbit erythrocytes): lowest concentration of glycoprotein that completely inhibited the hemagglutination activity of a lectin solution of titer 4", "setting": "[6]", "value": 62.5, "unit": "µg/mL"}, {"measurement": "hemagglutination inhibition (trypsin-treated rabbit erythrocytes): lowest concentration of glycoprotein that completely inhibited the hemagglutination activity of a lectin solution of titer 4", "setting": "[7]", "value": 15.6, "unit": "µg/mL"}, {"measurement": "hemagglutination inhibition (trypsin-treated rabbit erythrocytes): lowest concentration of glycoprotein that completely inhibited the hemagglutination activity of a lectin solution of titer 4", "setting": "[8]", "value": 62.5, "unit": "µg/mL"}, {"measurement": "hemagglutination inhibition (trypsin-treated rabbit erythrocytes): lowest concentration of glycoprotein that completely inhibited the hemagglutination activity of a lectin solution of titer 4", "setting": "[9]", "value": 31.3, "unit": "µg/mL"}, {"measurement": "hemagglutination inhibition (trypsin-treated rabbit erythrocytes): lowest concentration of glycoprotein that completely inhibited the hemagglutination activity of a lectin solution of titer 4", "setting": "[10]", "value": 1000, "unit": "µg/mL"}]}
